{
  "source": "IntAct's records for PubMed 17517630",
  "parents": {"B1": {"name": "Rho GTPase-activating protein 7 (Homo sapiens), Q96QB1-1 (parent)", "chain": "MCRKKPDTMILTQIEAKEACDWLRATGFPQYAQLYEDFLFPIDISLVKREHDFLDRDAIEALCRRLNTLNKCAVMKLEISPHRKRSDDSDEDEPCAISGKWTFQRDSKRWSRLEEFDVFSPKQDLVPGSPDDSHPKDGPSPGGTLMDLSERQEVSSVRSLSSTGSLPSHAPPSEDAATPRTNSVISVCSSSNLAGNDDSFGSLPSPKELSSFSFSMKGHEKTAKSKTRSLLKRMESLKLKSSHHSKHKAPSKLGLIISGPILQEGMDEEKLKQLNCVEISALNGNRINVPMVRKRSVSNSTQTSSSSSQSETSSAVSTPSPVTRTRSLSACNKRVGMYLEGFDPFNQSTFNNVVEQNFKNRESYPEDTVFYIPEDHKPGTFPKALTNGSFSPSGNNGSVNWRTGSFHGPGHISLRRENSSDSPKELKRRNSSSSMSSRLSIYDNVPGSILYSSSGDLADLENEDIFPELDDILYHVKGMQRIVNQWSEKFSDEGDSDSALDSVSPCPSSPKQIHLDVDNDRTTPSDLDSTGNSLNEPEEPSEIPERRDSGVGASLTRSNRHRLRWHSFQSSHRPSLNSVSLQINCQSVAQMNLLQKYSLLKLTALLEKYTPSNKHGFSWAVPKFMKRIKVPDYKDRSVFGVPLTVNVQRTGQPLPQSIQQAMRYLRNHCLDQVGLFRKSGVKSRIQALRQMNEGAIDCVNYEGQSAYDVADMLKQYFRDLPEPLMTNKLSETFLQIYQYVPKDQRLQAIKAAIMLLPDENREVLQTLLYFLSDVTAAVKENQMTPTNLAVCLAPSLFHLNTLKRENSSPRVMQRKQSLGKPDQKDLNENLAATQGLAHMIAECKKLFQVPEEMSRCRNSYTEQELKPLTLEALGHLGNDDSADYQHFLQDCVDGLFKEVKEKFKGWVSYSTSEQAELSYKKVSEGPPLRLWRSVIEVPAVPEEILKRLLKEQHLWDVDLLDSKVIEILDSQTEIYQYVQNSMAPHPARDYVVLRTWRTNLPKGACALLLTSVDHDRAPVVGVRVNVLLSRYLIEPCGPGKSKLTYMCRVDLRGHMPEWYTKSFGHLCAAEVVKIRDSFSNQNTETKDTKSR"}},
  "data": [
    {"variants_of": "B1", "details": "with tens1_chick TNS1, Q04205", "values": [
      {"variant": "Y442F", "effect of a mutation on the interaction": "disrupting interaction strength"}
    ]}
  ]
}
